The record followed here is patent US20080293089.

The target in this data set is T1, S5a (substrate in the E3 ligase selectivity example), P55036.
T1 chain: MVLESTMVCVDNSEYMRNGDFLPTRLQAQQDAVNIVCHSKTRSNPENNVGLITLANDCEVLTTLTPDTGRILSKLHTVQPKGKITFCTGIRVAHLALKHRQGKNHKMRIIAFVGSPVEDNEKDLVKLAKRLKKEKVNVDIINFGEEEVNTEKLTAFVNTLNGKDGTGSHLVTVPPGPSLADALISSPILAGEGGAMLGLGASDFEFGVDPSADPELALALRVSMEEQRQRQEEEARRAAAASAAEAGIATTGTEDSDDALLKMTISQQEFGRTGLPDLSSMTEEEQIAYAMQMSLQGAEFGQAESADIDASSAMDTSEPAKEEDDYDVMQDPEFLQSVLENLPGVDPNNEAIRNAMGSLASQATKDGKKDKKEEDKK

B1: GST-E6AP (protein)
chain: MEKLHQCYWKSGEPQSDDIEASRMKRAAAKHLIERYYHQLTEGCGNEACTNEFCASCPTFLRMDNNAAAIKALELYKINAKLCDPHPSKKGASSAYLENSKGAPNNSCSEIKMNKKGARIDFKDVTYLTEEKVYEILELCREREDYSPLIRVIGRVFSSAEALVQSFRKVKQHTKEELKSLQAKDEDKDEDEKEKAACSAAAMEEDSEASSSRIGDSSQGDNNLQKLGPDDVSVDIDAIRRVYTRLLSNEKIETAFLNALVYLSPNVECDLTYHNVYSRDPNYLNLFIIVMENRNLHSPEYLEMALPLFCKAMSKLPLAAQGKLIRLWSKYNADQIRRMMETFQQLITYKVISNEFNSRNLVNDDDAIVAASKCLKMVYYANVVGGEVDTNHNEEDDEEPIPESSELTLQELLGEERRNKKGPRVDPLETELGVKTLDCRKPLIPFEEFINEPLNEVLEMDKDYTFFKVETENKFSFMTCPFILNAVTKNLGLYYDNRIRMYSERRITVLYSLVQGQQLNPYLRLKVRRDHIIDDALVRLEMIAMENPADLKKQLYVEFEGEQGVDEGGVSKEFFQLVVEEIFNPDIGMFTYDESTKLFWFNPSSFETEGQFTLIGIVLGLAIYNNCILDVHFPMVVYRKLMGKKGTFRDLGDSHPVLYQSLKDLLEYEGNVEDDMMITFQISQTDLFGNPMMYDLKENGDKIPITNENRKEFVNLYSDYILNKSVEKQFKAFRRGFHMVTNESPLKYLFRPEEIELLICGSRNLDFQALEETTEYDGGYTRDSVLIREFWEIVHSFTDEQKRLFLQFTTGTDRAPVGGLGKLKMIIAKNGPDTERLPTSHTCFNVLLLPEYSSKEKLKERLLKAITYAKGFGML
As to B1, the “Ubiquitinated S5a?” value was “Yes”.

B2: His-CHIP (protein)
chain: MKGKEEKEGGARLGAGGGSPEKSPSAQELKEQGNRLFVGRKYPEAAACYGRAITRNPLVAVYYTNRALCYLKMQQHEQALADCRRALELDGQSVKAHFFLGQCQLEMESYDEAIANLQRAYSLAKEQRLNFGDDIPSALRIAKKKRWNSIEERRIHQESELHSYLSRLIAAERERELEECQRNHEGDEDDSHVRAQQACIEAKHDKYMADMDELFSQVDEKRKKRDIPDYLCGKISFELMREPCITPSGITYDRKDIEEHLQRVGHFDPVTRSPLTQEQLIPNLAMKEVIDAFISENGWVEDY
On to B2, for which the “Ubiquitinated S5a?” value was “Yes”.

B3: GST-Siah2 (protein)
chain: MSRPSSTGPSANKPCSKQPPPQPQHTPSPAAPPAAATISAAGPGSSAVPAAAAVISGPGGGGGAGPVSPQHHELTSLFECPVCFDYVLPPILQCQAGHLVCNQCRQKLSCCPTCRGALTPSIRNLAMEKVASAVLFPCKYATTGCSLTLHHTEKPEHEDICEYRPYSCPCPGASCKWQGSLEAVMSHLMHAHKSITTLQGEDIVFLATDINLPGAVDWVMMQSCFGHHFMLVLEKQEKYEGHQQFFAIVLLIGTRKQAENFAYRLELNGNRRRLTWEATPRSIHDGVAAAIMNSDCLVFDTAIAHLFADNGNLGINVTISTCCP
As to B3, the “Ubiquitinated S5a?” value is recorded as “Yes (low)”.

B4: GST-Nedd4 (protein)
chain: MATCAVEVFGLLEDEENSRIVRVRVIAGIGLAKKDILGASDPYVRVTLYDPMNGVLTSVQTKTIKKSLNPKWNEEILFRVHPQQHRLLFEVFDENRLTRDDFLGQVDVPLYPLPTENPRLERPYTFKDFVLHPRSHKSRVKGYLRLKMTYLPKTSGSEDDNAEQAEELEPGWVVLDQPDAACHLQQQQEPSPLPPGWEERQDILGRTYYVNHESRRTQWKRPTPQDNLTDAENGNIQLQAQRAFTTRRQISEETESVDNRESSENWEIIREDEATMYSNQAFPSPPPSSNLDVPTHLAEELNARLTIFGNSAVSQPASSSNHSSRRGSLQAYTFEEQPTLPVLLPTSSGLPPGWEEKQDERGRSYYVDHNSRTTTWTKPTVQATVETSQLTSSQSSAGPQSQASTSDSGQQVTQPSEIEQGFLPKGWEVRHAPNGRPFFIDHNTKTTTWEDPRLKIPAHLRGKTSLDTSNDLGPLPPGWEERTHTDGRIFYINHNIKRTQWEDPRLENVAITGPAVPYSRDYKRKYEFFRRKLKKQNDIPNKFEMKLRRATVLEDSYRRIMGVKRADFLKARLWIEFDGEKGLDYGGVAREWFFLISKEMFNPYYGLFEYSATDNYTLQINPNSGLCNEDHLSYFKFIGRVAGMAVYHGKLLDGFFIRPFYKMMLHKPITLHDMESVDSEYYNSLRWILENDPTELDLRFIIDEELFGQTHQHELKNGGSEIVVTNKNKKEYIYLVIQWRFVNRIQKQMAAFKEGFFELIPQDLIKIFDENELELLMCGLGDVDVNDWREHTKYKNGYSANHQVIQWFWKAVLMMDSEKRIRLLQFVTGTSRVPMNGFAELYGSNGPQSFTVEQWGTPEKLPRAHTCFNRLDLPPYESFEELWDKLQMAIENTQGFDGVD
With B4, the “Ubiquitinated S5a?” value was “Yes”.

B5: GST-Murf1 (protein)
chain: MDYKSSLIQDGNPMENLEKQLICPICLEMFTKPVVILPCQHNLCRKCANDIFQAANPYWTSRGSSVSMSGGRFRCPTCRHEVIMDRHGVYGLQRNLLVENIIDIYKQECSSRPLQKGSHPMCKEHEDEKINIYCLTCEVPTCSMCKVFGIHKACEVAPLQSVFQGQKTELNNCISMLVAGNDRVQTIITQLEDSRRVTKENSHQVKEELSQKFDTLYAILDEKKSELLQRITQEQEKKLSFIEALIQQYQEQLDKSTKLVETAIQSLDEPGGATFLLTAKQLIKSIVEASKGCQLGKTEQGFENMDFFTLDLEHIADALRAIDFGTDEEEEEFIEEEDQEEEESTEGKEEGHQ
B5: the “Ubiquitinated S5a?” value was “Yes”.
